The target of assay [1] is T1, VE-cadherin (wild type, mouse) (mouse (endogenous in lung of C57BL/6 …, UniProt P55284 46-784)).
T1 sequence (looked up): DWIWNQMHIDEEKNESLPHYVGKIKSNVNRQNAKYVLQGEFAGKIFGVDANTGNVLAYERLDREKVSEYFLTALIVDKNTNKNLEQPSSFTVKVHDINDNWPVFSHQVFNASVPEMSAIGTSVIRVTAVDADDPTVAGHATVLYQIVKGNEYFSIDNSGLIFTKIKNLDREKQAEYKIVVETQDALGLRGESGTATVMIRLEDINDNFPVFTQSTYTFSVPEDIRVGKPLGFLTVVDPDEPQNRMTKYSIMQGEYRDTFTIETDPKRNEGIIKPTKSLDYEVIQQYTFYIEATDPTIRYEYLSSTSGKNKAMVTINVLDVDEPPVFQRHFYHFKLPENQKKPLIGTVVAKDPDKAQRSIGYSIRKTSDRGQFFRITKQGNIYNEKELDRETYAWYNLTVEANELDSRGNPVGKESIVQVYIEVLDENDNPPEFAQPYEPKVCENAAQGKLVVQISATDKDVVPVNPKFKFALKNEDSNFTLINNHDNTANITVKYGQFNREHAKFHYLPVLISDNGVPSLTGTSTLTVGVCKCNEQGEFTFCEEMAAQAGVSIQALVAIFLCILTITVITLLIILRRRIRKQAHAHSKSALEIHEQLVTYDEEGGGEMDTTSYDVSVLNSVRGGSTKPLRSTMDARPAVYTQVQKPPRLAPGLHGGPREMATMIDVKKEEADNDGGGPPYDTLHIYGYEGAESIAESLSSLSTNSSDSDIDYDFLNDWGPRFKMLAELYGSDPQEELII
Description: co-IP.

For assay [2], the target named is T2, Y685F-VE-cadherin (knock-in mutant, mouse) (mouse (endogenous in lung of C57BL/6 …, UniProt P55284 46-784, Y685F)).
T2 sequence (looked up): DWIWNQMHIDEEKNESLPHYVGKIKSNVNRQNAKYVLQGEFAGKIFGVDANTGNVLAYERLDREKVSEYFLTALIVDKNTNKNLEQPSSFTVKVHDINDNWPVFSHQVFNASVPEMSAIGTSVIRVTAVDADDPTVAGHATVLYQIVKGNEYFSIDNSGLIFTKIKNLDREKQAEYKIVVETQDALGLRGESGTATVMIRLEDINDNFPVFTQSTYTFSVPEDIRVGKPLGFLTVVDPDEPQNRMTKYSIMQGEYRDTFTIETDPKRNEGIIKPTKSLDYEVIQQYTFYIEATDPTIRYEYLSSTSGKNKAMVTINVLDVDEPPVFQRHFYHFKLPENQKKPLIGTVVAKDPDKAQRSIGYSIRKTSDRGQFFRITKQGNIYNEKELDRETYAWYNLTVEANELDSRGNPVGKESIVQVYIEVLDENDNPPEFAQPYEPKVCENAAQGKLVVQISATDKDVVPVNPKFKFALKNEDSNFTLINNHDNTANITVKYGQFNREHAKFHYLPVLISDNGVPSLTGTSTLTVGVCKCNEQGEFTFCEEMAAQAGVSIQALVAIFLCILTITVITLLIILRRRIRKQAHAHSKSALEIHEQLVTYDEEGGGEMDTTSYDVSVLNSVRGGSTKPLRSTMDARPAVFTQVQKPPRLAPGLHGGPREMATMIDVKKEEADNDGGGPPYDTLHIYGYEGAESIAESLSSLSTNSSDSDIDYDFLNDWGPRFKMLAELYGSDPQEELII
Description: co-IP.

B1: β-catenin (natural protein, UniProt Q02248 1-781, looked up)
chain: MATQADLMELDMAMEPDRKAAVSHWQQQSYLDSGIHSGATTTAPSLSGKGNPEEEDVDTSQVLYEWEQGFSQSFTQEQVADIDGQYAMTRAQRVRAAMFPETLDEGMQIPSTQFDAAHPTNVQRLAEPSQMLKHAVVNLINYQDDAELATRAIPELTKLLNDEDQVVVNKAAVMVHQLSKKEASRHAIMRSPQMVSAIVRTMQNTNDVETARCTAGTLHNLSHHREGLLAIFKSGGIPALVKMLGSPVDSVLFYAITTLHNLLLHQEGAKMAVRLAGGLQKMVALLNKTNVKFLAITTDCLQILAYGNQESKLIILASGGPQALVNIMRTYTYEKLLWTTSRVLKVLSVCSSNKPAIVEAGGMQALGLHLTDPSQRLVQNCLWTLRNLSDAATKQEGMEGLLGTLVQLLGSDDINVVTCAAGILSNLTCNNYKNKMMVCQVGGIEALVRTVLRAGDREDITEPAICALRHLTSRHQEAEMAQNAVRLHYGLPVVVKLLHPPSHWPLIKATVGLIRNLALCPANHAPLREQGAIPRLVQLLVRAHQDTQRRTSMGGTQQQFVEGVRMEEIVEGCTGALHILARDVHNRIVIRGLNTIPLFVQLLYSPIENIQRVAAGVLCELAQDKEAAEAIEAEGATAPLTELLHSRNEGVATYAAAVLFRMSEDKPQDYKKRLSVELTSSLFRTEPMAWNETADLGLDIGAQGEALGYRQDDPSYRSFHSGGYGQDALGMDPMMEHEMGGHHPGADYPVDGLPDLGHAQDLMDGLPPGDSNQLAWFDTDL
On to B1, for which the “β-catenin/VE-cadherin ratio in the VE-cadherin immunoprecipitate (densitometry)” value in assay [1] was determined as 1.14; in assay [2] it was 0.798.

Source of the values: publication doi:10.1101/2024.04.17.589974 (bioRxiv, 2024).
